Key:
[1] = target: recombinant human CD40L (BioLegend Cat. #591706) (human) (UniProt P29965); experiment: ELISA on coated rh CD40L; IC50 clone/IC50 5c8 x100
[2] = target: recombinant human FcγRI (human) (UniProt P12314); experiment: ELISA, antibody coated on the plate, soluble FcγRI titrated (the axis is its concentration), anti-CD64 and HRP anti-mouse IgG, A450
UniProt P12314, sequence (P12314 16-288 limits assumed): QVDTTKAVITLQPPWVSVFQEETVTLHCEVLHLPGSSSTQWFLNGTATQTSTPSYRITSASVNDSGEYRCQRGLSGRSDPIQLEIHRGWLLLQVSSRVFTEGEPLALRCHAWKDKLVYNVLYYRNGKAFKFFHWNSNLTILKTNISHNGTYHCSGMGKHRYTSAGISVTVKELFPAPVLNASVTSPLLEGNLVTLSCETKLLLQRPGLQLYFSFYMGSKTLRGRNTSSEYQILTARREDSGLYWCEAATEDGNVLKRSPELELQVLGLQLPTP

UniProt P29965, sequence (P29965 113-261 limits assumed): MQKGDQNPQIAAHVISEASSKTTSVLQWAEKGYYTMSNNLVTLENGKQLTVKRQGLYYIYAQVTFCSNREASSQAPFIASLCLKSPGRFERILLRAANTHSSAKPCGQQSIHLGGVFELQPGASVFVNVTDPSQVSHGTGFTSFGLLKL

Rel. Pot. [1] [%]	EC50 (read off the curve) [2] [µg/mL]	Substance
95		anti-CD40L antibody AT-1501
	0.2	anti-CD40L antibody 5c8
